In patent US20240343810A1 (published 2024):

T1: Biotinylated human ICOS protein (human, UniProt Q9Y6W8 21-140, limits assumed, biotinylated (sites not given))
T1 construct: Captured on the NLC chip in the avidity SPR
T1 sequence: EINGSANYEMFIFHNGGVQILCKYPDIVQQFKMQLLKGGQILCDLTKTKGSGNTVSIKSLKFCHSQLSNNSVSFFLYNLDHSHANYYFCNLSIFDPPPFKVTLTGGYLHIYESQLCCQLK

T2: mouse ICOS-mFc (Chimerigen) (mouse, UniProt Q9WVS0 21-141, limits assumed)
T2 construct: Bought; also called recombinant mouse ICOS protein; mICOS; not shown: mouse Fc of the bought fusion
T2 sequence: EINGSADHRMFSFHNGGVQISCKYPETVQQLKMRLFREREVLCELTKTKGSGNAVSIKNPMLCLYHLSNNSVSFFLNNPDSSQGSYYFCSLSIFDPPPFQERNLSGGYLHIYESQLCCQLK

T3: mouse ICOS expressed on CHO cells (mouse, UniProt Q9WVS0 21-200)
T3 construct: also called CHO-S cells transfected with mouse ICOS; mICOS
T3 sequence (looked up): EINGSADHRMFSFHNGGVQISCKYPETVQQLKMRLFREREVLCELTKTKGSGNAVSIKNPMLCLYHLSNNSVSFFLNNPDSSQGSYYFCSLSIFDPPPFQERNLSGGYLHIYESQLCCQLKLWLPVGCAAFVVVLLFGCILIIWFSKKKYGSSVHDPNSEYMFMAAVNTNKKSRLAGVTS

T4: human ICOS expressed on cells (human, UniProt Q9Y6W8 21-199)
T4 sequence: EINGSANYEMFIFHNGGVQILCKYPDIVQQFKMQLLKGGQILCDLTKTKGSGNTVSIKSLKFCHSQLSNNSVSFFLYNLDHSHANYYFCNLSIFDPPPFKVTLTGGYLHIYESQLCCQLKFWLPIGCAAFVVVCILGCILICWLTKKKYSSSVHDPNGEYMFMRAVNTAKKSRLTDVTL


How the values were obtained:
[1] = target: T1, Biotinylated human ICOS protein; assay: SPR ProteOn avidity format, biotinylated human ICOS on NLC chip, antibody analyte, 25 C
Procedure: Biotinylated human ICOS protein diluted at 7.5 μg/mL in running buffer (1× HBS-EP+ Buffer Technova, cat. No. H8022) was captured on a NLC sensor chip (Bio-Rad, cat No 1765021). The surface was then blocked using biocytin (Sigma Aldrich, cat No B1758) at 1 mg/mL.
The assay was carried out at 25° C.
The buffer injection (i.e. 0 nM) was used to double reference the sensorgrams. The analysis was carried out using the equilibrium model inherent to the ProteOn's analysis software for each mAb² construct.

[2] = target: T2, mouse ICOS-mFc (Chimerigen); assay: HTRF, mouse ICOS-mFc, competitor mouse B7-H2-Alexa 647, average
Procedure: 5 μl of human ICOS-mFc (Chimerigen) at 20 nM (5 nM final) or 5 ul of mouse ICOS-mFc (Chimerigen) at 4 nM (1 nM final) were added to relevant assay wells. Plate was incubated for 1 hour (hr) at room temperature (RT).
After incubation, assay was read on Envision plate reader (Perkin Elmer) using a standard HTRF protocol. 620 nm and 665 nm channel values were exported to Microsoft Excel and % Delta-F and % Neutralisation calculations performed. Titration curves and IC50 values [M] were plotted using Graphpad (Prism). IC50 values were calculated by first transforming the data using equation X=Log(X). The transformed data was then fitted using nonlinear regression, using fitting algorithm, log (inhibitor) vs. response—variable slope (four parameters).

[3] = target: T3, mouse ICOS expressed on CHO cells; assay: Flow cytometry on CHO-S mouse ICOS cells, anti-human IgG AF647, N=3
Procedure: (§1) CHO—S cells transfected with either human ICOS or mouse ICOS were resuspended in FACS buffer (PBS+1% w/v BSA+0.1% w/v sodium azide) and transferred to a 96-well V-bottom plate (Greiner) at a density of 1×10⁵ cells per well. mAb and mAb² were titrated in FACS buffer, 1 in 3 dilution across 11 points from a starting working concentration of 400 nM. Plates were centrifuged at 300×g for 3 minutes, supernatant discarded and 50 μL mAb or mAb² solution were added to cells and incubated at 4° C. for 1 hour. Cells were washed with 150 μL of PBS and centrifuged at 300×g for 3 minutes, supernatant was discarded and cell pellet resuspended in 150 μL PBS added. This wash step was repeated twice. Bound mAb or mAb² was detected by addition of 50 μL of anti-human 647 (Jackson ImmunoResearch) diluted to 3 ug/ml in FACS buffer. Cells were incubated for 1 hour at 4° C. in the dark. Cells were washed with 150 μL of PBS and centrifuged at 300 g for 3 minutes, supernatant was discarded and cell pellet resuspended in 150 μL PBS added. This wash step was repeated twice. Cells were fixed with 25 μL 4% v/v paraformaldehyde, incubated for 20 minutes at 4° C., cells were pelleted by centrifugation at 300×g and the supernatant discarded. […] AlexaFluor 647 signal intensity (geometric mean) was measured by flow cytometry using a Beckman Coulter CytoFLEX instrument.

[4] = target: T4, human ICOS expressed on cells; assay: cell-based or functional assay
[5] = target: T4, human ICOS expressed on cells; assay: Flow cytometry on CHO-S human ICOS cells, anti-human IgG AF647, N=2
Procedure: as §1

| Binder | koff [1] [s⁻¹] | IC50 [2] [nM] | EC50 [3] [nM] | EC50 of IFN-γ production, plate-bound antibody, human T-cells + CD3/CD28 beads, donor 276 [4] [nM] | EC50 of IFN-γ production, plate-bound antibody, human T-cells + CD3/CD28 beads, donor 278 [4] [nM] | EC50 of IFN-γ production, plate-bound antibody, human T-cells + CD3/CD28 beads, donor 289 [4] [nM] | EC50 of IFN-γ production, plate-bound antibody, human T-cells + CD3/CD28 beads, donor 295 [4] [nM] | EC50 of IFN-γ production, plate-bound antibody, human T-cells + CD3/CD28 beads, median [4] [nM] | EC50 [5] [nM] |
| --- | --- | --- | --- | --- | --- | --- | --- | --- | --- |
| STIM003 (antibody, human IgG1, kappa, Anti-ICOS monospecific antibody, tested as human IgG1; also called STIM003 monoclonal IgG1 antibody) heavy: not shown light: EIVLTQSPGTLSLSPGERATLSCRASQSVSRSYLAWYQQKRGQAPRLLIYGASSRATGIPDRFSGDGSGTDFTLSISRLEPEDFAVYYCHQYDMSPFTFGPGTKVDIKRTVAAPSVFIFPPSDEQLKSGTASVVCLLNNFYPREAKVQWKVDNALQSGNSQESVTEQDSKDSTYSLSSTLTLSKADYEKHKVYACEVTHQGLSSPVTKSFNRGEC | 0.000449 | 0.37 | 7.28 | 7.1 | 3.8 | ~4 | ~11.6 | 5.55 | 4.89 |
| STIM001 (antibody, human IgG1, kappa, Anti-ICOS monospecific antibody, tested as human IgG1; also called STIM001 monoclonal IgG1 antibody) heavy: not shown light: DIVMTQSPLSLPVTPGEPASISCRSSQSLLHSNEYNYLDWYLQKPGQSPQLLIFLGSNRASGVPDRFSGSGSGTDFTLKITRVEAEDVGIYYCMQSLQTPLTFGGGTKVEIKRTVAAPSVFIFPPSDEQLKSGTASVVCLLNNFYPREAKVQWKVDNALQSGNSQESVTEQDSKDSTYSLSSTLTLSKADYEKHKVYACEVTHQGLSSPVTKSFNRGEC | 0.000456 | 8.71 | 20.1 | ~9.9 | ~10.2 | ~11.2 | 14.5 | 10.7 | 13.8 |
